Data published in paper PMC12680351, “The novel GlcNAc 6-phosphate dehydratase NagS governs a metabolic checkpoint that controls nutrient signaling in Streptomyces” (PLOS Biology, 2025).
Where two headings read alike, the source gives them in different places.

What was measured:
NagS [1] = molecular target: T1, NagS (Streptomyces coelicolor, UniProt Q9K3V1); experiment: X-ray crystal structure ([…] Å); competitive inhibition kinetics; thermal denaturation; assay type: biochemical
T1 construct: gene SCO4393; N-terminally His6-tagged NagS
T1 sequence (Q9K3V1 1-251): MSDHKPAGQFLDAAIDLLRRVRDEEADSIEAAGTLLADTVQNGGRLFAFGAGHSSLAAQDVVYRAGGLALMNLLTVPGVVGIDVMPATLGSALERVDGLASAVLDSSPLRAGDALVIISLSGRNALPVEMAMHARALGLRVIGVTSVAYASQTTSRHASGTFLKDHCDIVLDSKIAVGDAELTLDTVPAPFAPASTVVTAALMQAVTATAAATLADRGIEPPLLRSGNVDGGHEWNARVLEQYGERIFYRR

NagS [2] = molecular target: T2, NagS (Streptomyces coelicolor, UniProt Q9K3V1, S54A); assay type: biochemical
T2 construct: gene SCO4393

purified protein [3] = substrate: CC(=O)N[C@H]1C(O)O[C@H](COP(=O)(O)O)[C@@H](O)[C@@H]1O; experiment: purified protein
purified protein [4] = substrate: CC(=O)N[C@@H]1C(O)O[C@H](COP(=O)(O)O)[C@@H](O)[C@@H]1O; experiment: purified protein
[5] = molecular target: the molecule itself; experiment: SEC; analytical size-exclusion chromatography, Superdex 200 10/300 GL, NagS at 35 uM and 70 uM, 20 mM HEPES pH 7.5, 300 mM NaCl, 5% glycerol, 1 mM DTT; calibrated with a protein standard mix (15-600 kDa)
purified protein [6] = substrate: CC(=O)N[C@H]1C(O)O[C@H](COP(=O)(O)O)[C@H](O)[C@@H]1O; experiment: purified protein; details: divalent metal cation ([…] ZnCl2 supplemented during expression)
[7] = catalytic site formed by both monomers, Ser54, Ser91, Glu94, Ser119, Ser121, His53 main chain, ArgB64, AsnB228, AlaB65, GlyB227
[8] = divalent metal cation ([…] ZnCl2 supplemented during expression)

T2 sequence (Q9K3V1 whole entry S54A): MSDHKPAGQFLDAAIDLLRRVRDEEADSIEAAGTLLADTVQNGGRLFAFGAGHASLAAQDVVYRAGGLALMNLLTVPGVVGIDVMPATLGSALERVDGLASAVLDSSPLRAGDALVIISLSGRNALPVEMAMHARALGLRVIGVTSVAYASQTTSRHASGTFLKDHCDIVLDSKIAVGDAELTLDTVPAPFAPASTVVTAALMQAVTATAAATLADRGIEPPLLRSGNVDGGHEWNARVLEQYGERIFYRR

## O=C(O)[C@H](O)[C@@H](O)[C@H](O)[C@H](O)COP(=O)(O)O [6-phosphogluconate]
NagS [1]
  Ki: 280 ± 30 µM

## CC(=O)N[C@H]1C(O)O[C@H](COP(=O)(O)O)[C@@H](O)[C@@H]1O (stereo partly drawn) [GlcNAc-6P]
NagS [2]
  Km: 850 ± 90 µM

B1: GlcNAc-6P dehydratase NagS (SCO4393) of Streptomyces coelicolor (enzyme, UniProt Q9K3V1 1-251, looked up)
chain: MSDHKPAGQFLDAAIDLLRRVRDEEADSIEAAGTLLADTVQNGGRLFAFGAGHSSLAAQDVVYRAGGLALMNLLTVPGVVGIDVMPATLGSALERVDGLASAVLDSSPLRAGDALVIISLSGRNALPVEMAMHARALGLRVIGVTSVAYASQTTSRHASGTFLKDHCDIVLDSKIAVGDAELTLDTVPAPFAPASTVVTAALMQAVTATAAATLADRGIEPPLLRSGNVDGGHEWNARVLEQYGERIFYRR
notes: NagS (SCO4393), Streptomyces coelicolor A3(2) M145; calculated mass of the NagS-His6 monomer 28.29 kDa; The methods say N-terminally His6-tagged (pET-15b); the results write NagS-His6; also called NagS-His6; N-acetylglucosamine-6-phosphate dehydratase; source: E. coli Rosetta (DE3)pLysS, purified (Ni-NTA, size-exclusion chromatography on Superdex 200); not shown: His6, N-terminal, kept
Purified protein [3]; [7]
  Km: 450 ± 30 µM
  kcat: 24.7 ± 0.38 s⁻¹
  kcat/Km: 54800 M⁻¹ s⁻¹
Purified protein [4]
  Km: 680 ± 50 µM
  kcat: 0.9 ± 0.02 s⁻¹
  kcat/Km: 1320 M⁻¹ s⁻¹
[5]
  stoichiometry N: 2

B2: NagA (Streptomyces coelicolor A3(2)) (protein)
chain: MAPSKVLAGARVVLPTGTVDDGRVIVDGARIADTAPPQAETVDLAGHWVVPGFVDIHNHGGGGASFAGGTAEEILAGVETHRRHGTTTVVASAVTGDLDFLARHAGMLAELAQQGDIVGIHFEGPFISPCRKGAHDEQLLRDPDPAEVRKLVDAAHGHAKMMTLATELPGGLDSVRLLVEHGVIAAVGHTDATYEQTVQAIDAGATVATHLFNAMPPVGHRAPGPITALLEDERITVELINDGTHLHPAALQLAFHHAGAARVAFITDAMDAAGFGDGHYLLGPLEVEVADGVARLVEGGSIAGSTLTLDRAFKRAVTVDRLPVGDVVAAISANPARLLGLDDRIGSLEPGKDADLVVLDDAFDLVGVMRRGEWVVDPHLG
Purified protein [3]; [8]
  Km: 1590 ± 210 µM
  kcat: 160 ± 9.02 s⁻¹
  kcat/Km: 101000 M⁻¹ s⁻¹
Purified protein [6]
  Km: 2840 ± 410 µM
  kcat: 29.2 ± 2.31 s⁻¹
  kcat/Km: 10300 M⁻¹ s⁻¹
Purified protein [4]; [8]
  Km: 2400 ± 440 µM
  kcat: 14.6 ± 1.1 s⁻¹
  kcat/Km: 6060 M⁻¹ s⁻¹
